Read-outs that look alike come from different tables or passages of the source.
Legend:
[1] = biological target: paclitaxel stabilized microtubules (polymerized bovine brain tubulin) (bovine) (UniProt Q6B856); assay: co-sedimentation
[2] = biological target: subtilisin-treated microtubules (C-terminal tails of α- and β-tubulin removed) (bovine) (UniProt Q6B856)
[3] = biological target: paclitaxel stabilized microtubules (polymerized bovine brain tubulin) (bovine) (UniProt Q6B856); assay: co-sedimentation; remark: listed apart in the source
[4] = biological target: paclitaxel stabilized microtubules (polymerized bovine brain tubulin) (bovine) (UniProt Q6B856); assay: co-sedimentation; remark: listed apart in the source

paclitaxel stabilized microtubules (polymerized bovine brain tubulin) (bovine), sequence (Q6B856 whole entry, looked up): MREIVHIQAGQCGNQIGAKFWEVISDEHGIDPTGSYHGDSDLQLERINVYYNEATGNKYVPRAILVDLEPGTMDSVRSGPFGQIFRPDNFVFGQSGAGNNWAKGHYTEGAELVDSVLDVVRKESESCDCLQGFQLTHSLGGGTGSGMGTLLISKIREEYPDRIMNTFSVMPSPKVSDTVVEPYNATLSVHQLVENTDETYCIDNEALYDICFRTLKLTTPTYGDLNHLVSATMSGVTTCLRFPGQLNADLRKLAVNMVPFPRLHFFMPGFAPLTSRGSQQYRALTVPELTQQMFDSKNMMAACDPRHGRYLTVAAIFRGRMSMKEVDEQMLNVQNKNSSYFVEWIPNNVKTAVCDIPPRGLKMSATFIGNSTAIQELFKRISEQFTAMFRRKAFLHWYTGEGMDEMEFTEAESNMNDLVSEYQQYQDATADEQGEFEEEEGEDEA
subtilisin-treated microtubules (C-terminal tails of α- and β-tubulin removed) (bovine), sequence (Q6B856 whole entry, looked up): as above

## catalytic domain plus the putative neck linker of human kinesin-like DNA-binding protein (KID), Gly5-Leu379 (domain or fragment)
[1]
  Kd: 160 nM
[2]
  K0.5,S-MT of the steady-state ATPase on subtilisin treated microtubules: 1.1 µM
[3]
  Kd: 500 nM
[4]
  Kd: 110 nM

Source: paper doi:10.1101/520460
